Molecular target: T1, Gal3 peptides (SEQ ID NOs: 3-26) (Homo sapiens, UniProt P17931)
T1 construct: a library of 24 amino acid peptides representing portions of Gal3; purchased LifeTein custom order
Test: Gal3 peptide library binding ELISA (epitope mapping)

B1: TB001: Gal3-targeted Gal3-INSR blocking anti-Gal3 antibody; IMT001-4 used with human IgG4 isotype control (antibody, V domains shown)
VH: QVQLVQSGSELKKPGASVKVSCKASGYTFTNYGMNWVRQAPGQGLKWMGWINTNTGEPTYVEEFTGRFVFSLETSVSTAYLQISSLKAEDTAVYFCAPYDNFFAYWGQGTTVTVSS
VL: DIVLTQSPLSLPVTPGEPASISCRSSKSLLYKDGKTYLNWFLQKPGQSPQLLIYLMSTHASGVPDRFSGSGSGTDFTLKISRVEAEDVGVYYCQQLVDYPLTFGGGTKLEIK
- binding to Gal3 Peptide 5 (Peptide 5 (SEQ ID NO: 7)): bind
- binding to Gal3 Peptide 6 (Peptide 6 (SEQ ID NO: 8), amino acids 51-70 of Gal3, listed as IMT001 (TB001)): bind and bound

Source: patent publication US20230094463A1, “ANTIBODIES THAT DISRUPT THE INTERACTION OF GAL3 AND INSULIN RECEPTOR OR INTEGRINS AND METHODS OF USE THEREOF” (TrueBinding, Inc., priority 2019, published 2023)
